To fix the notation:
B1: human Izumo1 ectodomain E71A (Izumo1E71A-His10-SpyTag-LPETGG) (domain or fragment)
chain: CVICDPSVVLALKSLEKDYLPGHLDAKHHKAMMERVENAVKDFQELSLNADAYMGVVDEATLQKGSWSLLKDLKRITDSDVKGDLFVKELFWMLHLQKETFATYVARFQKEAYCPNKCGVMLQTLIWCKNCKKEVHACRKSYDCGERNVEVPQMEDMILDCELNWHQASEGLTDYSFYRVWGNNTETLVSKGKEATLTKPMVGPEDAGSYRCELGSVNSSPATIINFHVTVLP
modifications: glycosylated (sites not given); SpyTag joined by an isopeptide bond to a SpyCatcher polyprotein
B2: human Izumo1 ectodomain R160A (Izumo1R160A-His10-SpyTag-LPETGG) (domain or fragment)
chain: B1 chain with A50E, R139A
modifications: glycosylated (sites not given); SpyTag joined by an isopeptide bond to a SpyCatcher polyprotein
B3: human Izumo1 ectodomain H157A (Izumo1H157A-His10-SpyTag-LPETGG) (domain or fragment)
chain: B1 chain with A50E, H136A
modifications: glycosylated (sites not given); SpyTag joined by an isopeptide bond to a SpyCatcher polyprotein

Residue numbers refer to the chain shown, from its start. Names and notes keep the numbering of the source.

By Kd is commonly meant the constant that tells how readily two partners part at equilibrium. Low values mean higher affinity, high ones lower affinity.

Chain of human Juno ectodomain, wild type (Juno-His10-SpyTag-LPETGG) (human, glycosylated (sites not given); SpyTag joined by an isopeptide bond to a SpyCatcher polyprotein) (chain, as listed by the source): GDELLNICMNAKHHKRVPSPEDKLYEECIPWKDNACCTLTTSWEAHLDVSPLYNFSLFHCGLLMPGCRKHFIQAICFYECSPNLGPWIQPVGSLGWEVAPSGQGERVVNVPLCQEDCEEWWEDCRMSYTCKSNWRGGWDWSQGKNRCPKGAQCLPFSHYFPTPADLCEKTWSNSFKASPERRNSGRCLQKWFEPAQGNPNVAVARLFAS

This assay concerns the target human Juno ectodomain, wild type (Juno-His10-SpyTag-LPETGG) (human, glycosylated (sites not given); SpyTag joined by an isopeptide bond to a SpyCatcher polyprotein). As to the kind of experiment: FACS. In general terms: Flow cytometry measures light scatter and fluorescence of single cells or particles in a stream.
With B1, the dissociation constant (Kd) came out at 0.043 µM.

On to B2, for which the Kd worked out at 0.157 µM.

In turn, B3 displayed a dissociation constant Kd of 0.243 µM.

Values taken from article PMC12381214 (2025).
